Laboratory results published in the DeepSol protein solubility set.

Assay: soluble on expression in E. coli; label from the status in PepcDB or PDB records

Row | Sequence | soluble on expression in E. coli
1 | MGSDKIHHHHHHSTPTEFKRPSLKVLFGSFVGEYPGIIAQEKGFFKAQGVDVELIHKRYIQLEQANFSAGKYDGMTSSLGNLIILSAINLDIQGVIVIDESTGADVVVAQPQIKTVADLKGKKLGANLGGFSELFITEMLKTNNLNSNDVNLVRLEALKIPQNLKKNFIQAGHTWEPYLSEAMKIGGNILFTSKQTPGLILDLMIFRGDVIRDRPGDIRAFVQGWLQASEYWKENVQEGNTIISKALKIPSNTISLEGISLTSLDENQNLFQFSNPNSIDKIAKVYADFFIRAGNLTRIPELKSLFNSSFLNPAS | not soluble
2 | GVSFFLVKEKMKGKNKLVPRLLGITKECVMRVDEKTKEVIQEWSLTNIKRWAASPKSFTLDFGDYQDGYYSVQTTEGEQIAQLIAGYIDIIL | soluble
3 | MKSAWMEKTYTIDGCAFHTQHRKGSSGVTIVFEAGYGTSSETWKPLMADIDDEFGIFTYDRAGIGKSGQSRAKRTADQQVKELESLLKAADVKPPYLAVSHSYGAVITGLWACKNKHDIIGMVLLDPALGDCASFTFIPEEMHKSHTRKMMLEGTHAEFSKSLQELKKRQVHLGNMPLLVLSSGERTEKFAAEQEWQNLHSSILSLSNQSGWIQAKNSSHNIHHDEPHIVHLAIYDVWCAACQQAAPLYQAVN | not soluble
4 | MSTSLTIRLVAEADWPALHALDQIIWTKKNTPAEIQPLSLAAYQEKMKDETIFVAISGQQLAGFIEVHPPTSLAAHQKQWLLSIGVSPDFQDQGIGGSLLSYIKDMAEISGIHKLSLRVMATNQEAIRFYEKHGFVQEAHFKEEFYINGHYCDDYQYAYFIEK | soluble
5 | NKYFENVSKIKYEGPKSNNPYSFKFYNPEEVIDGKTMEEHLRFSIAYWHTFTADGTDQFGKATMQRPWNHYTDPMDIAKARVEAAFEFFDKINAPYFCFHDRDIAPEGDTLRETNKNLDTIVAMIKDYLKTSKTKVLWGTANLFSNPRFVHGASTSCNADVFAYSAAQVKKALEITKELGGENYVFWGGREGYETLLNTDMEFELDNFARFLHMAVDYAKEIGFEGQFLIEPKPKEPTKHQYDFDVANVLAFLRKYDLDKYFKVNIEANHATLAFHDFQHELRYARINGVLGSIDANTGDMLLGWDTDQFPTDIRMTTLAMYEVIKMGGFDKGGLNFDAKVRRASFEPEDLFLGHIAGMDAFAKGFKVAYKLVKDRVFDKFIEERYASYKDGIGADIVSGKADFRSLEKYALERSQIVNKSGRQELLESILNQYLFAE | soluble
6 | GSHMDDDLVDAEGNLVENGGTYYLLPHIWAHGGGIETAKTGNEPCPLTVVRSPNEVSKGEPIRISSQYRSLFIPRGSLVALGFANPPSCAASPWWTVVDSPQGPAVKLSQQKLPEKDILVFKFEKVSHSNIHVYKLLYCQHDEEDVKCDQYIGIHRDRNGNRRLVVTEENPLELVLLKAKSETASSH | soluble
7 | MGSDKIHHHHHHMNNKYKNSYIVKEKELVSLSVYNVGFQSCDSLYQWGPGIRDHYLIHYIISGKGRYTVNGSVHTLTPGDAFLVYPNTEVIYQADAQDPWEYTWVGFTGSDAATILRATDFTKAHPYIHSVSNGNEIKRQLMHIYDARGTEFENALEMTGRLYTTLALFVSAATSKPPQNSANSYVQKGIEYISANYSYPITVEDIASYIGLSRSHLFRSFQSILGVSPKEYLTDFRIKQACYLLKHSSLSITAIAGSIGFDNSLYFSKTFHKIKGLSPKEYRSKYKKAQE | not soluble
8 | VEVESFLVHPGDLLQLRCRLRDDVQSINWLRDGVQLAESNRTRITGEEVEVQDSVPADSGLYACVTSSPSGSDTTYFSVNVSDALP | soluble
9 | MSLTPWLSIVGISEEGWLALTPIAQQCILQADILVGSDRHFDLLPSLPGAEQWRWGSPFSATITQILERRGQSICILASGDPMCYGVGSLLAQRLPLTELQILPAPSAFSLACSRLGWALPEVETLSLCGRDPALLNALLYPGAKILALSADRSTPATIAEQLCQQGWGSSRLTVLEHLGGPKERKISEIAEHWSQPTIASLNTVAIECHARDRDLIVPPRLTGLPDAAYHHDGQLTKREVRAITLAALAPLPGQLLWDVGAGCGSIGIEWMRSDRRCRAIAIEQHPQRLQIITQNAIALGVPNLQVVAGSAPATLSGLPQPDAIFIGGGVTAPGVLDQCWQALPMGGRLVVNAVTLESEQVVLAGQQRWGGDLIRVAVQRAEPIGRFLGWKSLAPITQWTVKKTALEHHHHHH | soluble
10 | MSLKGLTVGFLPKAVNNPYFTSADKGGEKALEELGSSYKEVGPSSATDTSGQVSYVNTLTQQQVDAMAVSAQDPGALCTALKQAMKNGIEVVTYDSDTKTGCRNAFVSQASAEDLGRTEVQLLAEQIGYKGEIAILSAAQTATNQNTWIGFMKDELKDPKYKNVKLVKVAYGNDDAQQSFQQTQGLLQEHPKLAGIISPTTVGIKAAAQYLSGSKYKGKVKLTGLGTPNDMRKYVKNGTVEGFELWDPAKLGELAARTAVALSSGQISGKEGETFKAGDMGSYTIGKDGEGHHHHHH | soluble
11 | MESVLNNEKAIVVFSGGQDSTTCLFYAKKHFKEVELVTFNYGQRHDTEIEVAKQIAQDQGMKHHVLDMSLLSQLTPNALTQHDMEITNNEDGIPNTFVPARNLLFLSFAGALAYQIGAKHIITGVCETDFSGYPDCRDSFIKSMNVTLSLAMDKDFVIHTPLMWLNKAETWKLSDELEVLDYIRTKTLTCYNGIIGDGCGECPACHLRQRGLNQYLESKGAL | not soluble
12 | MKYTIEEIRQMQEGQTFDCKSILIEPKHLATIIVAMANADGGMIAVGISDKTRRIEGVNQDKEHLNDILRTPLDFCVPSVSVTTDYVPCTDAEGRDNRVLLMHIPASPRLHANQADEVFWRVGDKSRKLTFDERLQLMYDKGERYYEDSTAYDATLDDIDMDAVKAYMKRIGYGKSAMEYLQENKGFVTYKGDVPQVSAACILLFGKHPQTFFPRARVRFIKYFGTEEKVGREMNVIKDVTFDGRILEQIQKTVEYLETQVKEHSYLGEDGIFKTDREYPKFVIQEMVVNSVCHRDYSIKGTEIQIKMFDDRLVFETPGKLPGIVRTDNIRHTHFSRNPKIAEFLKAYDYVKEFGEGVDRMCRELSALGVKEPQYNLVAFIMKATVCAKVLEERQGTNHFDQKRPESDQKSDQMRIILELIKSNPNISRTELSEKTGLHDSSVKRRLKTLVDEGLIQRVGPDKGGQWKVIGSLLEHHHHHH | soluble
13 | MGSDKIHHHHHHMIRIENISKQNSHRLLFIEASAALNKGEKIGLVGPNGAGKTTLFRMITGEELPDEGQVATEKGVTIGYFNQDVGEMSGRSAVAEVMDGAGPVSTVAAELRELEGAMSDPDRMDEMDAIIERYGEVQARYEELDGYALEGRAREVLDGLSFSQEMMDGDVGKLSGGWKMRVALARILLMRPDVMLLDEPSNHLDLESLIWLESFLKNYDGALLMTSHDREFMNRIVTKIIEIDGGSLTSYSGDYGFYEGQRAQNEKQQQAQFERQQAMLAKEIKFIERFKARASHAAQVQSRVKKLDKIDRVEPPRRRQTVAFDFLPAPRSGDDVINIKNVHKAYGSRTIYQGLDFMVRRRERWCIMGINGAGKSTLLKLVAGTTEPDQGTVSIGASVKLGYFAQHAMDVLDGDSTVLQWLEESFPKAGQAPLRALAGCFGFSGDDVEKRCRVLSGGEKARLVMAAMLFDPPNLLVLDEPTNHLDLDTKEMLIKALSAYEGTMLFVSHDRHFLAALSNRVLELTPDGIHQYGGGYTEYVERTGQEAPGLHAA | not soluble
14 | SLSGGKYVDSEGHLYTVPIREQGNIYKPNNKAMADELSEKQVYDAHTKEIDLVNRDPKHLNDDVVKIDFEDVIAEPEGTHSFDGIWKASFTTFTVTKYWFYREG | not soluble
15 | MGSDKIHHHHHHMPSDAINEGQAQDAPRMRAAEYVRMSTEHQQYSTENQADKIREYAVRRGIDIIKTYADEGKSGLRIDGRQALQSLIRDVEAGTADFDIILVYDVSRWGRFQDADESAYYEYICRRAGIQVAYCAEQFENDGSPVSTIVKGVKRAMAGEYSRELSAKVFAGQCRLIELGYRQGGPAGYGLRRTLVDVKGEVKAELSRGEHKSLQTDRVILRPGPDEEVTIVNQIYRWFIDDGMYESEIAGRLNGMRVRTDLDREWTRATVREVLTNEKYVGHNVYNRVSFKLKKLRVVNPPEMWIRRDAAFPGVVPPDVFYTAQGIIRARAHRYTNEELIERLRGLYRNRGFLSGVVINETEDMPCAAVYAHRFGSLVRAYQLVGFTPDRDYRYVEINRALRRMHPDVLRQIEGQIAGLGGIVQRDAATDVLIVNGEFTVSIVLARCHEAAGMPNRWKIRLDSSLAPDISVAARLESGNQAVRDYYLLPKVDIGSSNISLAERNAAEFESYRFETLDYLYGMAARSRVRLAA | not soluble
16 | MELQQRTLTIGLGNDIAVQTEGVGFIRGQLVADHAEINSVFKVVVKAALIVVKTLFADGYPHAIFQRFLMPDNRNRQHRADKAVGLVGIADDAEIRIAFCLISNAFFFTELIIGIGCGKADCGHFFVVFAAGSASVHKVSDFQNEFAVKPFAGKQHPHQYIGNHAGINRPPIISPQPCQQSGKRPVDYKKYAPNLRYPAGIAHGFFRQVGLLQPRKFFNHRLPGKQAAAEHRQHHQIDEDGIPIHRIMPPEHQYCGKKQCNKQSRITLLGQFGSQGAQQPQPAHRRRQPNKPARLPAVYSGLTKTSTALPRLAVLSAASSPCPDFC | not soluble
17 | MKVDLFDFHLPEELIAQTPLPDRAASRLMVLDKRTGAIRHETFRNIISYLNPGDCLVLNDTRVMPARLYGEKEETGGTVEVLLLKQLDGDRWETLVKPGKRVKPGTKLTFGEGKLEAVCLDTLEHGGRVLEFSYDGLFYEVLAELGEMPLPPYIKEKLDDPERYQTVYAREIGSAAAPTAGLHFTEELLDAIREKGVHIVFITLHVGLGTFRPVQVDDVEKHDMHAEFYQMSEETAETLNRVREQGGRIIAVGTTSTRTLETIAGKHNGRFVAESGWTDIFIYPGYEFKGIDGLVTNFHLPKSTLIMLVSALAGRENILHAYQVAVKERYRFFSFGDAMLII | soluble
18 | GMKGENMMVKLIALYEQPEDKQAFDEHYFNTHAPLTRKIPGLRDMKVTRIVGSPMGESKFYLMCEMYYDDHESLQQAMRTDEGKASGKDAMKFAGKLLTLMIGEEMDE | soluble
19 | MLVNGALSTTGSFGQTVKYLQPHYNLVLFDLPFSGQSRAHNPDEMIVSKEDEVQILLQLIDLYQVNYLLSVSWGGVSALLALAQCPASVEKAIISSFSPVLNEPMLDYIDKAQVYLAAREKRKIGSLLNDTVGKHLPRLFKLYNYKHLIGLAEHEYGQIDFHISQIRTLSASNYVERFSSIKIPVLFINGEKDEYTTVEDARMFSNYIAKSSFNVVPDTGHFLDLESKAAWHHSQKTALSFLGT | not soluble
20 | MSQGYAIELYFDPALENQVLKAWNVFARRQISTYLINNESRPHITLFSTTSSIDSTKLEPIIKSFSSKQEPISLSFSSIGSFSSDDNALFLSPTPSLSLIQLQLQLCEVIKKEGFEIGEEYRVDSWVPFCSVAVDVPKSRISEGFLVLRDLKLLVYGYAMDIGLVEFSPVREVFSFGLGNNLES | soluble
21 | MAHHHHHHMSYPYYTEFFVRFPKFKEREESERTVDPRIELEKKCQAKCVRPVNEYQSCVSRVQAKPEMKGNCLGQHEEMYMCIDHCVAKDLFNYLV | not soluble
22 | MGSDKIHHHHHHMDFRLRQMEIFRSVMLTGSINGAAKLLFISQPAVSRIIAHTEQTLGLKLFNRAKGKLIPTPEGVALFRQVDEFYEHALQVNNFARDLAQGATGTLNLSSSPCLSYTVMPRAIAQFIARYPKIRVVYHTSQLNCMATEVLSNKVDVAVAVMPIQHPNVKVEVFTTGKMACVLPKDHPLGSQTVLSLADVSAYPLIVHHPSITFGKLVSTAFRDAGLEMRSRVNVFQTDVACSLVRAGAGIAIVDEYTACAGAWHDLMQRPLAEPITLTPCIVRSAFDNQATHADKFIEILRGVAHAR | not soluble
